The EC50 is the concentration at which the effect is half-maximal. Higher therefore signals lower potency in that assay.

This assay has as its target CLDN18.2 on lipoparticles. Put plainly: ELISA on CLDN18.2-lipoparticles. For orientation: In an ELISA, binding on a coated surface is turned into a signal by an enzyme label.

The substance IMAB362 (antibody) had an EC50 of 0.0515 µg/mL.

These data come from patent publication US20240100180A1.
